According to patent US20230416363A1 (KADMON, published 2023):

What was measured:
[1] = target: T1, human PD-1 expressed on cells (human, UniProt Q15116 25-288); assay: flow cytometry, hPD1-Jurkat cells
T1 construct: whole, on cells

[2] = target: T1, human PD-1 expressed on cells; assay: cell-based or functional assay
[3] = target: T1, human PD-1 expressed on cells; assay: flow cytometry, SEB-activated PBMC donor three
[4] = target: T1, human PD-1 expressed on cells; assay: flow cytometry, hPD1-293 cells
hPD-1-his [5] = target: T2, hPD-1-his (human, UniProt Q15116 25-167); assay: ELISA, captured hPD-1-his
T2 construct: domain: IgV domain; monomer in solution; biotin-labelled where captured by streptavidin; also called biotin-hPD-1-his
T2 sequence (Q15116 other isoform, or with tags, fused parts or gaps limits assumed): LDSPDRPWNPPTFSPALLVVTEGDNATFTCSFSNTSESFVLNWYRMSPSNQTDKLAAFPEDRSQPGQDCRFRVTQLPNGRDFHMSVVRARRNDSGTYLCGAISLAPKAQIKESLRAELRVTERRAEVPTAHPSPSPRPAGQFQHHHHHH

hPD-1-Fc [6] = target: T3, hPD-1-Fc (human, UniProt Q15116 25-167); assay: blocking ELISA, hPD-1-Fc to hPD-L1-Fc
T3 construct: domain: IgV domain; also called human PD-1-Fc; not shown: human IgG1 Fc
T3 sequence (Q15116 25-167 limits assumed): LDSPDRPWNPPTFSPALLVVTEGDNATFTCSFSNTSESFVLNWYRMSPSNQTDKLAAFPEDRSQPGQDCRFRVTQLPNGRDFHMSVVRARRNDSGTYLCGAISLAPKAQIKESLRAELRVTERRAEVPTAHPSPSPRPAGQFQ

hPD-1-Fc [7] = target: T3, hPD-1-Fc; assay: SPR Biacore T200, PD-1-Fc immobilised
hPD-1-his [8] = target: T2, hPD-1-his; assay: SPR Biacore T200, PD-1-his immobilised
[9] = target: T1, human PD-1 expressed on cells; assay: flow cytometry, hPD1-293 cells; remark: listed apart in the source
[10] = target: T1, human PD-1 expressed on cells; assay: cell-based or functional assay; remark: listed apart in the source
[11] = target: T1, human PD-1 expressed on cells; assay: flow cytometry, SEB-activated PBMC donor one
hPD-1-Fc [12] = target: T3, hPD-1-Fc; assay: ELISA, hPD-1-Fc coated
hPD-1-Fc [13] = target: T3, hPD-1-Fc; assay: blocking ELISA, PD-1 to PD-L1
[14] = target: T1, human PD-1 expressed on cells; assay: cell-based or functional assay; remark: listed apart in the source
hPD-1-his [15] = target: T2, hPD-1-his; assay: SPR, Exp. 4
hPD-1-his [16] = target: T2, hPD-1-his; assay: ELISA, biotin-PD-1-his on streptavidin
hPD-1-Fc [17] = target: T3, hPD-1-Fc; assay: ELISA, PD-1-Fc coated
[18] = target: T1, human PD-1 expressed on cells; assay: cell-based or functional assay; remark: listed apart in the source
hPD-1-Fc [19] = target: T3, hPD-1-Fc; assay: ELISA, hPD1-Fc coated
hPD-1-his [20] = target: T2, hPD-1-his; assay: ELISA, hPD-1-his on anti-his
hPD-1-his [21] = target: T2, hPD-1-his; assay: ELISA, PD-1-his on anti-his
[22] = target: T1, human PD-1 expressed on cells; assay: flow cytometry, activated PBMC donor two
hPD-1-Fc [23] = target: T3, hPD-1-Fc; assay: blocking ELISA, PD-1 to PD-L2
hPD-1-his [24] = target: T2, hPD-1-his; assay: ELISA, biotin-hPD-1-his on streptavidin
[25] = target: T1, human PD-1 expressed on cells; assay: flow cytometry, activated PBMC donor FA
[26] = target: T1, human PD-1 expressed on cells; assay: flow cytometry, hPD-1-Jurkat cells
hPD-1-his [27] = target: T2, hPD-1-his; assay: SPR, Exp. 2
hPD-1-Fc [28] = target: T3, hPD-1-Fc; assay: blocking ELISA, hPD-1-Fc to hPD-L1-Fc; remark: listed apart in the source
hPD-1-his [29] = target: T2, hPD-1-his; assay: SPR, Exp. 3
hPD-1-Fc [30] = target: T3, hPD-1-Fc; assay: SPR, Exp. 3
hPD-1-his [31] = target: T2, hPD-1-his; assay: SPR, Exp. 1
hPD-1-Fc [32] = target: T3, hPD-1-Fc; assay: SPR, Exp. 1
[33] = target: T1, human PD-1 expressed on cells; assay: flow cytometry, SEB-activated PBMC donor
[34] = target: T1, human PD-1 expressed on cells; assay: flow cytometry, hPD-1-293 cells
hPD-1-Fc [35] = target: T3, hPD-1-Fc; assay: SPR, range over experiments
[36] = target: T1, human PD-1 expressed on cells; assay: flow cytometry, SEB-activated PBMC donor two

T1 sequence (Q15116 25-288): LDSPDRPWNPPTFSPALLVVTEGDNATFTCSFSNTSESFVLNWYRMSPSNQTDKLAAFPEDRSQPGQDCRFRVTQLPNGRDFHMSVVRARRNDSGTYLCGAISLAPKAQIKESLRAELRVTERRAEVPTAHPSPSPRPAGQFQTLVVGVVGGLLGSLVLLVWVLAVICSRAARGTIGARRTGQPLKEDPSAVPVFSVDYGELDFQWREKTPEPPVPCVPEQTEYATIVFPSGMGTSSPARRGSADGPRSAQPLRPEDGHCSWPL

B1: 24H9 (antibody, human IgG1, V domains shown)
VH: EVQLLESGGGLVQPGGSLRLSCAASGFTFSSYWMSWVRQAPGKGLEWVSAISGSGGSTYYADSVKGRFTISRDNSKNTLYLQMNSLRAEDTAVYYCASSPLQWVDVWGQGTTVTVSS
VL: DIQMTQSPSSLSASVGDRVTITCRASQGISSWLAWYQQKPGKAPKLLIYSASSLQSGVPSRFSGSGSGTDFTLTISSLQPEDFATYYCQQANSFPFTFGPGTKVDIK
- EC50 [1]: 0.77 nM
- MFI at 5 nM [1]: 80.6 MFI
- EC50, Promega blockade bioassay [2]: 0.855 µg/mL
- Fold induction [2]: 4.97 fold
- EC50 [3]: 0.913 nM
- MFI at 100 nM [3]: 70.5 MFI
- EC50 [4]: 58.7 nM
- MFI at 68 nM [4]: 59 MFI
- EC50 (hPD-1-his [5]): 1.31 nM
- OD at 10 nM (hPD-1-his [5]): 0.69 OD450
- IC50 (hPD-1-Fc [6]): 2.28 nM
- Inhibition % (3.3 nM) (hPD-1-Fc [6]): 70%
- Inhibition % (30 nM) (hPD-1-Fc [6]): 92.9%
- Kd (hPD-1-Fc [7]): 1.46 nM
- Kd (hPD-1-his [8]): 13.9 nM
- EC50 [9]: 2.69 nM
- MFI at 5 nM [9]: 42.8 MFI
- EC 50, Promega PD-1/PD-L1 blockade bioassay [10]: 0.823 µg/mL
- Fold of induction [10]: 3.96 fold
- EC50 [11]: 1.37 nM
- MFI at 100 nM [11]: 18.7 MFI
- EC50 (hPD-1-Fc [12]): 0.128 nM
- OD at 10 nM (hPD-1-Fc [12]): 1.84 OD450

B2: 31B1 (antibody, V domains shown)
VH: QVQLVQSGAEVKKPGSSVKVSCKASGGTFSSSVISWVRQAPGQGLEWMGGIIPIFGTANYAQKFQGRVTITADESTSTAYMELSSLRSEDTAVYYCAREGLGCSGGSCYSGYYYGMDVWGQGTTVTVSS
VL: DIVMTQSPLSLPVTPGEPASISCRSSQSLLHSNGYNYLDWYLQKPGQSPQLLIYEASSLHSGVPDRFSGSGSGTDFTLKISRVEAEDVGVYYCMQGTHWPYTFGQGTKVEIK
notes: also called 780_38; 33B1 and 31B2 (apparent misprints)
- EC50 [1]: 0.084 nM
- MFI at 5 nM [1]: 91.6 MFI
- IC50 (hPD-1-Fc [13]): 2.65 nM
- Inhibition, % at 5.56 nM (hPD-1-Fc [13]): 89.7%
- EC50, Promega blockade bioassay, Exp. 1 [14]: 0.168 µg/mL
- EC50, Promega blockade bioassay, Exp. 2 [14]: 0.172 µg/mL
- Fold induction at 12 µg/ml, Exp. 1 [14]: 7.44 fold
- Fold induction at 12 µg/ml, Exp. 2 [14]: 8.4 fold
- Kd (hPD-1-his [15]): < 0.019 nM
- EC50 (hPD-1-his [16]): 0.104 nM
- EC50, Promega blockade bioassay [2]: 0.139 µg/mL
- Fold induction [2]: 6.48 fold
- EC50 (hPD-1-Fc [17]): 0.114 nM
- EC50 averaged from two experiments, Promega blockade bioassay [18]: 0.168 µg/mL
- EC50 (hPD-1-Fc [19]): 0.167 nM
- OD450 at 10 nM (hPD-1-Fc [19]): 0.974 OD450
- EC50 (hPD-1-his [20]): 0.095 nM
- OD450 at 10 nM (hPD-1-his [20]): 0.59 OD450
- EC50 (hPD-1-his [21]): 0.139 nM
- EC50 [22]: 0.025 nM
- MFI at 25 nM [22]: 17.8 MFI
- IC50 (hPD-1-Fc [23]): 3.94 nM
- Inhibition, % at 3.7 nM (hPD-1-Fc [23]): 41.4%
- Inhibition, % at 100 nM (hPD-1-Fc [23]): 94.5%
- EC50 (hPD-1-his [24]): 0.244 nM
- OD450 at 10 nM (hPD-1-his [24]): 0.953 OD450
- EC50 [25]: 0.049 nM
- MFI at 25 nM [25]: 18.4 MFI
- MFI, 5 nM [26]: 67 MFI
- Kd (hPD-1-his [27]): < 0.01 nM
- Kd (hPD-1-Fc [7]): 0.688 nM
- Kd (hPD-1-his [8]): 6.56 nM
- IC50 (hPD-1-Fc [28]): 2.15 nM
- Inhibition % at 5.6 nM (hPD-1-Fc [28]): 90.2%
- Inhibition % at 50 nM (hPD-1-Fc [28]): 91.4%
- EC50 [9]: 0.077 nM
- MFI at 5 nM [9]: 46.4 MFI
- Kd (hPD-1-his [29]): 0.353 nM
- Kd (hPD-1-Fc [30]): < 0.01 nM
- Kd (hPD-1-his [31]): < 0.036 nM
- Kd (hPD-1-Fc [32]): < 0.014 nM
- MFI, 5 nM [33]: 98.5 MFI
- MFI, 5 nM [34]: 186 MFI
- Kd (hPD-1-Fc [35]): 0.01 to 0.02 nM
- MFI, 5 nM [36]: 67.7 MFI

B3: 23H9 (antibody, human IgG1, V domains shown)
VH: B2 VH
VL: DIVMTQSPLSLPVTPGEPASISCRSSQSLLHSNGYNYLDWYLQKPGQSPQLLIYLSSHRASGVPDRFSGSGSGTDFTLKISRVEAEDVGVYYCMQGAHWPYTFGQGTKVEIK
- EC50 [1]: 0.42 nM
- MFI at 5 nM [1]: 120 MFI
- EC50, Promega blockade bioassay [2]: 0.551 µg/mL
- Fold induction [2]: 5.58 fold
- EC50 [3]: 0.829 nM
- MFI at 100 nM [3]: 109 MFI
- EC50 (hPD-1-Fc [19]): 0.121 nM
- OD450 at 10 nM (hPD-1-Fc [19]): 0.916 OD450
- EC50 (hPD-1-his [20]): 0.238 nM
- OD450 at 10 nM (hPD-1-his [20]): 0.406 OD450
- EC50 [4]: 2.53 nM
- MFI at 68 nM [4]: 38.8 MFI
- EC50 (hPD-1-his [5]): 0.35 nM
- OD at 10 nM (hPD-1-his [5]): 1.25 OD450
- EC50 (hPD-1-his [24]): 0.18 nM
- OD450 at 10 nM (hPD-1-his [24]): 0.89 OD450
- IC50 (hPD-1-Fc [6]): 2.04 nM
- Inhibition % (3.3 nM) (hPD-1-Fc [6]): 82.5%
- Inhibition % (30 nM) (hPD-1-Fc [6]): 94.7%
- Kd (hPD-1-Fc [7]): 0.928 nM
- Kd (hPD-1-his [8]): 4.91 nM
- IC50 (hPD-1-Fc [28]): 1.27 nM
- Inhibition % at 5.6 nM (hPD-1-Fc [28]): 88.6%
- Inhibition % at 50 nM (hPD-1-Fc [28]): 90.4%
- EC50 [9]: 0.33 nM
- MFI at 5 nM [9]: 43 MFI
- EC 50, Promega PD-1/PD-L1 blockade bioassay [10]: 0.688 µg/mL
- Fold of induction [10]: 4.42 fold
- EC50 [11]: 0.993 nM
- MFI at 100 nM [11]: 26.2 MFI
- EC50 (hPD-1-Fc [12]): 0.151 nM
- OD at 10 nM (hPD-1-Fc [12]): 1.75 OD450
